Paper PMC10786891, “Massively parallel profiling of RNA-targeting CRISPR-Cas13d”
Numbering of substitutions follows the chain as printed. Numbers in names are those of the source.

T1: EsCas13d, nuclease-dead (Eubacterium siraeum, UniProt B0MS50, R295A;H300A;R849A;H854A)
T1 sequence: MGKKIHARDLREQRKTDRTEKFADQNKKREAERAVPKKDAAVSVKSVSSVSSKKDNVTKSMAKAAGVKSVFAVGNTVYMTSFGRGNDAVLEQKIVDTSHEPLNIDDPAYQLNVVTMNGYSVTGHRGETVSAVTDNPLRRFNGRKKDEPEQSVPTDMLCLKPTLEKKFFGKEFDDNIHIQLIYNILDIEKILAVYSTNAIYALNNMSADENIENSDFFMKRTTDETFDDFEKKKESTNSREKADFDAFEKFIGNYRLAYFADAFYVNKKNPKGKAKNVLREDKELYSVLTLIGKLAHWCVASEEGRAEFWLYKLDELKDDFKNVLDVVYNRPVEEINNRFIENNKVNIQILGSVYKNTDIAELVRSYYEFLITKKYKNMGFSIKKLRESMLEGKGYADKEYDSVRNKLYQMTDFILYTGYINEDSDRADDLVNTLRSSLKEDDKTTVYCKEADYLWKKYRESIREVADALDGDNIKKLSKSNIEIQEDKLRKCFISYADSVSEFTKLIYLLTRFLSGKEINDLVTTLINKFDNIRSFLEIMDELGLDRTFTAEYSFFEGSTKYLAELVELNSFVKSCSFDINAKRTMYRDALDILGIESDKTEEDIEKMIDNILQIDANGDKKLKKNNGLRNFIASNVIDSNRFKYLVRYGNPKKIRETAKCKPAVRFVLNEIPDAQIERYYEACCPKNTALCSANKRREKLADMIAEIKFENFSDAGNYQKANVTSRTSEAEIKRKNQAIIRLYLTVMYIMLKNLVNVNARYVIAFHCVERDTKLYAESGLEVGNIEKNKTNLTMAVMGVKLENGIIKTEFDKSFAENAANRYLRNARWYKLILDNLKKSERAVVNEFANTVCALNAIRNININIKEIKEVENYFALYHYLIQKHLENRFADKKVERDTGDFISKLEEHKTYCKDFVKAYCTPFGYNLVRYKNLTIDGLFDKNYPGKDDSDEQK

B1: target 1 G5C,U10C (mixed)
RNA 1: CACCCGUGCAAAAAUGCAGGGGUCUAAAACUGAGCGGAUAACCUCUCUAUGG
RNA 2: GGGAAUGGAUCCACAUCUACGAAUUCGUACCAUAGAGAGGUCAUCCCCUCACCGAGAUCGGAAGAGCACACGU
B2: target 1 insA 3' of 11 (mixed)
RNA 1: B1 RNA 1
RNA 2: GGGAAUGGAUCCACAUCUACGAAUUCGUACCAUAGAGAGGUAUAUCCGCUCACCGAGAUCGGAAGAGCACACGU
B3: target 1 C7U,A9U (mixed)
RNA 1: B1 RNA 1
RNA 2: B1 RNA 2 with C42U, A43U, C45U, C47G
B4: target 1 insG 3' of 18,insA 3' of 8 (mixed)
RNA 1: B1 RNA 1
RNA 2: GGGAAUGGAUCCACAUCUACGAAUUCGUACCAUAGGAGAGGUUAUACCGCUCACCGAGAUCGGAAGAGCACACGU
B5: target 1 insU 3' of 22,insC 3' of 9 (mixed)
RNA 1: B1 RNA 1
RNA 2: B4 RNA 2 with C31U, A32C, U33A, A34U, G35A, U45C, A46U
B6: target 1 insU 3' of 14,insA 3' of 3 (mixed)
RNA 1: B1 RNA 1
RNA 2: B4 RNA 2 with G36A, A37G, G38A, A39U, A46C, C48G, G49C, C50U, U51A
B7: target 1 insU 3' of 20,insC 3' of 10 (mixed)
RNA 1: B1 RNA 1
RNA 2: B4 RNA 2 with A34U, G35A, A44C, U45A, A46U
B8: target 1 A1U,U19A (mixed)
RNA 1: B1 RNA 1
RNA 2: B1 RNA 2 with U33A, C42U, C47G, A51U
B9: target 1 insC 3' of 9,insU 3' of 4 (mixed)
RNA 1: B1 RNA 1
RNA 2: GGGAAUGGAUCCACAUCUACGAAUUCGUACCAUAGAGAGGUUACUCCGCUUCACCGAGAUCGGAAGAGCACACGU
B10: target 1 A9G,C21A (mixed)
RNA 1: B1 RNA 1
RNA 2: B1 RNA 2 with C31A, C42U, A43G, C47G
B11: target 1 U3C,G5C (mixed)
RNA 1: B1 RNA 1
RNA 2: B1 RNA 2 with C42U, U49C
B12: target 1 C7A,A14G (mixed)
RNA 1: B1 RNA 1
RNA 2: B1 RNA 2 with A38G, C42U, C45A, C47G
B13: target 1 insA 3' of 17,insU 3' of 1 (mixed)
RNA 1: B1 RNA 1
RNA 2: B4 RNA 2 with G36A, A46C, C48G, G49C, C50U, U51C, C52A, A53U
B14: target 1 insG 3' of 20,insA 3' of 11 (mixed)
RNA 1: B1 RNA 1
RNA 2: B4 RNA 2 with U33G, A34U, G35A, U43A, A44U, U45A, A46U
B15: target 1 insA 3' of 17,insC 3' of 1 (mixed)
RNA 1: B1 RNA 1
RNA 2: B4 RNA 2 with G36A, A46C, C48G, G49C, C50U, U51C, C52A, A53C
B16: target 1 insA 3' of 17,insA 3' of 2 (mixed)
RNA 1: B1 RNA 1
RNA 2: B4 RNA 2 with G36A, A46C, C48G, G49C, C50U, U51C, C52A
B17: target 1 insG 3' of 7,insU 3' of 1 (mixed)
RNA 1: B1 RNA 1
RNA 2: B9 RNA 2 with C44U, U45C, C46G, U51C, C52A, A53U
B18: target 1 insA 3' of 17,insG 3' of 1 (mixed)
RNA 1: B1 RNA 1
RNA 2: B4 RNA 2 with G36A, A46C, C48G, G49C, C50U, U51C, C52A, A53G
B19: target 1 insU 3' of 22,insG 3' of 2 (mixed)
RNA 1: B1 RNA 1
RNA 2: GGGAAUGGAUCCACAUCUACGAAUUCGUACUCAUAGAGAGGUUAUCCGCUCGACCGAGAUCGGAAGAGCACACGU
B20: target 1 U10G,G13A (mixed)
RNA 1: B1 RNA 1
RNA 2: B1 RNA 2 with G39A, C42G, C47G
B21: target 1 insA 3' of 15,insC 3' of 3 (mixed)
RNA 1: B1 RNA 1
RNA 2: B9 RNA 2 with G39A, U41G, A43U, C44A, U51C
B22: target 1 insG 3' of 16,insC 3' of 3 (mixed)
RNA 1: B1 RNA 1
RNA 2: B9 RNA 2 with A38G, G39A, U41G, A43U, C44A, U51C
B23: target 1 C4U,C7G (mixed)
RNA 1: B1 RNA 1
RNA 2: B1 RNA 2 with C42U, C45G, C47G, C48U
B24: target 1 C6U,G15C (mixed)
RNA 1: B1 RNA 1
RNA 2: B1 RNA 2 with G37C, C42U, C46U, C47G
B25: target 1 insU 3' of 21,insA 3' of 19 (mixed)
RNA 1: B1 RNA 1
RNA 2: GGGAAUGGAUCCACAUCUACGAAUUCGUACCUAUAAGAGAGGUUAUCCGCUCACCGAGAUCGGAAGAGCACACGU
B26: target 1 C4G,A18C (mixed)
RNA 1: B1 RNA 1
RNA 2: B1 RNA 2 with A34C, C42U, C47G, C48G
B27: target 1 A9U,G17A (mixed)
RNA 1: B1 RNA 1
RNA 2: B1 RNA 2 with G35A, C42U, A43U, C47G
B28: target 1 C2A,U3A (mixed)
RNA 1: B1 RNA 1
RNA 2: B1 RNA 2 with C42U, C47G, U49A, C50A
B29: target 1 G15A,G17A (mixed)
RNA 1: B1 RNA 1
RNA 2: B1 RNA 2 with G35A, G37A, C42U, C47G
B30: target 1 insU 3' of 20,insU 3' of 18 (mixed)
RNA 1: B1 RNA 1
RNA 2: B25 RNA 2 with U32A, A33U, A36U
B31: target 1 C4G,C7A (mixed)
RNA 1: B1 RNA 1
RNA 2: B1 RNA 2 with C42U, C45A, C47G, C48G
B32: target 1 U11C,A14C (mixed)
RNA 1: B1 RNA 1
RNA 2: B1 RNA 2 with A38C, U41C, C42U, C47G
B33: target 1 insU 3' of 20,insU 3' of 4 (mixed)
RNA 1: B1 RNA 1
RNA 2: B19 RNA 2 with U31C, C32A, A33U, C51U, G52C
B34: target 1 insU 3' of 17,insC 3' of 10 (mixed)
RNA 1: B1 RNA 1
RNA 2: B4 RNA 2 with G36U, A44C, U45A, A46U
B35: target 1 insU 3' of 15,insU 3' of 6 (mixed)
RNA 1: B1 RNA 1
RNA 2: B4 RNA 2 with G36A, A37G, G38U, A46C, C48U

These binders were tested against T1, EsCas13d, nuclease-dead (assay: crRNA (strand 1, pre-loaded); Mg2+; 40 mM Tris-HCl pH 7.5, 150 mM NaCl, 6 mM MgCl2, 1 mM DTT, 0.1% Tween-20, 0.2 mg/ml BSA; 25 C; 10 min per concentration, then washed). Details: tags: His6-TwinStrep-SUMO cleaved; N-terminal SNAP kept (SNAP-Surface 488); label: 3' end held by stalled T7 RNA polymerase.

Row | Binder | Kd [nM]
1 | B1 | 23.2 ± 1.2
2 | B2 | 16.4 ± 0.8
3 | B3 | 6.3 ± 0.4
4 | B4 | 56 ± 5
5 | B5 | 36 ± 7
6 | B6 | 56 ± 14
7 | B7 | 30 ± 4
8 | B8 | 29 ± 4
9 | B9 | 9.2 ± 0.6
10 | B10 | 36 ± 4
11 | B11 | 6.3 ± 0.7
12 | B12 | 15.6 ± 0.6
13 | B13 | 18.5 ± 1.9
14 | B14 | 75 ± 33
15 | B15 | 12.2 ± 1.2
16 | B16 | 13.8 ± 0.7
17 | B17 | 7.3 ± 0.5
18 | B18 | 17.6 ± 1.7

Row | Binder | Kd [nM]
19 | B19 | 29.1 ± 1.8
20 | B20 | 42 ± 15
21 | B21 | 10.1 ± 1.3
22 | B22 | 12.4 ± 0.6
23 | B23 | 10.4 ± 0.4
24 | B24 | 62 ± 7
25 | B25 | 55 ± 10
26 | B26 | 44 ± 7
27 | B27 | 41 ± 5
28 | B28 | 10 ± 0.8
29 | B29 | 80 ± 15
30 | B30 | 33 ± 5
31 | B31 | 7.1 ± 0.4
32 | B32 | 86 ± 22
33 | B33 | 10.6 ± 1.2
34 | B34 | ~50
35 | B35 | 35.6 ± 3.2
